Test results published in patent US20100184672A1 (published 2010).

Assays:
[1] = biological target: T1, glycocalicin (the proteolytic fragment of GPIb) (human, UniProt P07359 17-506); assay: SPR, comparison of Kd with that of VWF A1 on glycocalicin
T1 construct: domain: glycocalicin (the proteolytic fragment of GPIb); Purified from human platelets; coated on the SPR sensor
From the text: (§1) The sensorgrams at different concentrations were obtained and normalized by subtracting background signals from the glycocalicin surface.

[2] = biological target: T1, glycocalicin (the proteolytic fragment …); assay: SPR, ligand perfused over glycocalicin-coated sensor, Langmuir one-to-one fit
From the text: as §1

fold difference against the interaction of GPIb and VWF A1 [1]: ~10 fold
Kd [2]: 308 nM
B1: Activated protein C (APC), human plasma-derived (enzyme)
chain 1: ANSFLEELRHSSLERECIEEICDFEEAKEIFQNVDDTLAFWSKHVDGDQCLVLPLEHPCASLCCGHGTCIDGIGSFSCDCRSGWEGRFCQREVSFLNCSLDNGGCTHYCLEEVGWRRCSCAPGYKLGDDLLQCHPAVKFPCGRPWKRMEKKRSHL
chain 2: LIDGKMTRRGDSPWQVVLLDSKKKLACGAVLIHPSWVLTAAHCMDESKKLLVRLGEYDLRRWEKWELDLDIKEVFVHPNYSKSTTDNDIALLHLAQPATLSQTIVPICLPDSGLAERELNQAGQETLVTGWGYHSSREKEAKRNRTFVLNFIKIPVVPHNECSEVMSNMVSENMLCAGILGDRQDACEGDSGGPMVASFHGTWFLVGLVSWGEGCGLLHNYGVYTKVSRYLDWIHGHIRDKEAPQKSWAP
notes: mature
